Paper PMC3281051, “Probing High Affinity Sequences of DNA Aptamer against VEGF165”

How the values were obtained:
[1] = biological target: VEGF on HT-29 cells (human) (UniProt P15692); test: flow cytometry; conditions: hypoxia 1% O2, 37 C, scrambled signal subtracted, SPR (BIAcore 2000, CM5): PBS + 0.005% Tween-20, 25 C, 30 ul/min, aptamer 0.2-100 nM, 1:1 Langmuir fit, cells: culture medium, 2 h
[2] = biological target: VEGF165 (human, UniProt P15692-4 27-191); test: SPR; SPR (BIAcore 2000, CM5): PBS + 0.005% Tween-20, 25 C, 30 ul/min, aptamer 0.2-100 nM, 1:1 Langmuir fit; cells: culture medium, 37 C, 2 h, 1% O2; conditions: protein: commercial, tags: carrier-free, chain copies: 2
[3] = biological target: VEGF121 (human, UniProt P15692-9 27-147); test: as above; conditions: protein: commercial; tags: carrier-free; chain copies: 2; hairpin
[4] = biological target: VEGF165, human (Homo sapiens (Human), UniProt P15692 27-191); test: SPR; PBS, 0.005% Tween-20, 25 C; protein amine-coupled on CM5; conditions: chain copies: 2
Chain of VEGF165, human (P15692 other isoform, or with tags, fused parts or gaps): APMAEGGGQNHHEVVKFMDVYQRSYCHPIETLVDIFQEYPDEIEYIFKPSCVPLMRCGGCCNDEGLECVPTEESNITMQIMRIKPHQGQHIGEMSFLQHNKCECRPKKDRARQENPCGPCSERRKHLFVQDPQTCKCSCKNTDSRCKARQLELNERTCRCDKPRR

Chain of VEGF121 (P15692 other isoform, or with tags, fused parts or gaps): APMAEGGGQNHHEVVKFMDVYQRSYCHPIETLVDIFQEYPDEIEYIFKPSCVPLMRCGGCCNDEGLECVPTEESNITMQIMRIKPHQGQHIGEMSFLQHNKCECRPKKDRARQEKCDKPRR
Chain of VEGF on HT-29 cells (human) (P15692 whole entry): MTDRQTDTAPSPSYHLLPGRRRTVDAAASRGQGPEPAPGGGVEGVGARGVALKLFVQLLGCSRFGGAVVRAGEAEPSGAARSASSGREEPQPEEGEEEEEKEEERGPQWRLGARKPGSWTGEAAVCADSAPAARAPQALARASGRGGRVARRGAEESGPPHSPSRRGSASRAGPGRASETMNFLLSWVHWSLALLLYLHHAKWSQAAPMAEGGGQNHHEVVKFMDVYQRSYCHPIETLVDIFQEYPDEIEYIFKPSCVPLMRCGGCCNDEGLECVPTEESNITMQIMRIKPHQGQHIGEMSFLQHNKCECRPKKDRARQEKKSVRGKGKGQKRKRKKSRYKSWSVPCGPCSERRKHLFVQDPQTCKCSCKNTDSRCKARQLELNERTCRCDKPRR

“CAATTGGGCCCGTCCGTATGGTGGGT [SL2-B Texas Red]” was tested, and the Kd [1] was 1 nM.

B1: SL2-B (ssDNA)
DNA: CAATTGGGCCCGTCCGTATGGTGGGT
With B1 the Kd ([2]; hairpin) was 0.5 ± 0.32 nM and the Kd [3] was 10200 ± 1890 nM.

B2: SL1 (ssDNA)
DNA: ATACCAGTCTATTCAATTGG
B2: no binding ([2]; hairpin).

B3: VEa5 (ssDNA)
DNA: ATACCAGTCTATTCAATTGGGCCCGTCCGTATGGTGGGTGTGCTGGCCAGATAGTATGTGCAATCA
Molecule B3 has a Kd [4] of 120 ± 1.8 nM and a Kd ([2]; 3 stem-loops (mfold)) of 120 ± 1.8 nM.

B4: SL2 (ssDNA)
DNA: CCCGTCCGTATGGTGGG
B4 showed a Kd ([2]; hairpin) of 49 ± 2.4 nM.

B5: SL2-A (ssDNA)
DNA: GCCCGTCCGTATGGTGGGT
In the case of B5, the Kd ([2]; hairpin) is reported as 10 ± 1.1 nM.
